What was measured:
[1] = biological target: T1, Human soluble uPAR (residues 1-277) (human, UniProt Q03405 23-299); test: equilibrium SPR (Biacore 1000), IgG immobilized on a CM5 chip, soluble uPAR as analyte, one site binding model
T1 construct: also called soluble human uPAR

[2] = biological target: T1, Human soluble uPAR (residues 1-277); test: equilibrium SPR (Biacore), IgG immobilized, soluble uPAR as analyte (FIG. 4)
[3] = biological target: T2, Membrane-bound human uPAR on cells (human, UniProt Q03405 23-305); test: in vivo imaging, 2 nmol labelled IgG, 48 hours after injection
T2 construct: whole, on cells; Also used for endogenous uPAR in H1299 lysates (co-immunoprecipitation) and in tumor xenografts and sections; also called cell surface uPAR; CD87
T2 sequence (Q03405 23-305): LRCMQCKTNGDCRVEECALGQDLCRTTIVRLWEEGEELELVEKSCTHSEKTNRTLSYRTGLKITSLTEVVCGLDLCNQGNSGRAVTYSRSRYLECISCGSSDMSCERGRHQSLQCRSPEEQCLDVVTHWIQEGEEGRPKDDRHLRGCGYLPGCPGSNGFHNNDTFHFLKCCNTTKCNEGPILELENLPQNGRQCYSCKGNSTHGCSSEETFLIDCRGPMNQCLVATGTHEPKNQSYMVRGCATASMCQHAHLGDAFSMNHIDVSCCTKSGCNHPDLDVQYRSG

T1 sequence (Q03405 23-299): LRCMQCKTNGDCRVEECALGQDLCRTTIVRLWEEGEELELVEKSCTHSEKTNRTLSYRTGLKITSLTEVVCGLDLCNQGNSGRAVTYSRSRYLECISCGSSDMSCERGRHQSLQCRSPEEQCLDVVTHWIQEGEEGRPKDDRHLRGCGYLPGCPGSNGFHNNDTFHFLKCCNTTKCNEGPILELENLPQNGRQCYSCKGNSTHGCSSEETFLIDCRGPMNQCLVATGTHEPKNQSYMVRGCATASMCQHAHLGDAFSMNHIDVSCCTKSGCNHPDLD

Row | Binder | Kd [1] [nM] | Kd [2] [nM] | binding result [3]
1 | 1A8 IgG (antibody, V domains shown, also called 1A8 IgG1; not shown: human IgG1 constant region of vector pTT5-SP-H1) VH: QVQLQQSGPGLVKPSQTLSLTCAISGDSVSSNSAAWNWIRQSPSRGLEWLGRTYYRSKWYNDYAVSVKSRITINPDTSKNQFSLQLNSVTPEDTAVYYCTRDPGGALDDSFDIWGQGTMVTVSS VL: DVVMTQSPASLSVSVGDRVTLTCQASQVINNHLNWYQQQPGKAPKLLVYDASNLETGVPSRFSGSGSGTDFTFTISGLQPEDIATYYCQQSDNLPLTFGGGTKLEIKR | 23.8 | – | –
2 | 2E9 IgG (antibody, V domains shown, also called 2E9 IgG1; not shown: human IgG1 constant region of vector pTT5-SP-H1) VH: not shown VL: QSVLTQPPSVSVSPGQTASITCSGDNLGYKYASWYQQKPGQSPVLIIYQDKKRPSGIPERFSGSNSGNTATLTISGTQAMDEADYYCQAWDSSTSVVFGGGTKLTVLG | 9.2 | – | –
3 | 2G10 IgG (antibody, V domains shown, Alexa Fluor 680 (about 15 dyes per IgG) or DOTA-111In in the imaging experiments. It is unlabelled in SPR and flow cytometry., Used with an Alexa Fluor 680 or 111In-DOTA label in the in vivo imaging; also called 2G10 IgG1; DOTA-2G10 IgG) VH: QVQLQQSGPGLVKPSQTLSLTCAISGDSVSSNSAAWNWIRQSPSRGLEWLGRTYYRSKWYNDYAVSVKSRIIINPDTSKNQFSLQLNSVTPEDTAVYYCARDPGGPLDDSFDIWGQGTMVTVSS VL: DVVMTQSPLSLPVTPGEPASISCRSSQSLLRSNGYNYLDWYLQKPGQSPQLLIYLGSIRASGVPDRFSGSGSGTDFTLRISRVEAEDVGVYYCMQALQTPFTFGQGTKLEIKR | 40.5 | ~40.5 | –
4 | 3C6 IgG (antibody, V domains shown, not shown: IgG constant region; the making of 3C6 IgG is not described) VH: QVQLQQWGAGLLKPSETLSLTCAVYGGSFSGYYWSWIRQPPGKGLEWIGEINHSGSTNYNPSLKSRVTISVDTSKNQFSLKLSSVTAADTAVYYCARGRRFGDFDYWGQGTLVTVSS VL: QPVLTQPPSVSVAPGKTARITCGGNNIGSKSVHWYQQKPGQAPVLVVYDDSDRPPGIPERFSGSNSGNTATLTISRVEAGDEADYYCQVWDSSSDHSPFGTGTKVTVLG | – | – | binds
